Results on one molecule are retold here after article PMC2120827.

This series addresses GST-Sox17 (mouse, UniProt Q61473 24-366). The experiment in a line: EMSA. In general terms: Mobility shift assays separate free from complexed probe on a gel.

GST-Sox17, sequence (Q61473 24-366): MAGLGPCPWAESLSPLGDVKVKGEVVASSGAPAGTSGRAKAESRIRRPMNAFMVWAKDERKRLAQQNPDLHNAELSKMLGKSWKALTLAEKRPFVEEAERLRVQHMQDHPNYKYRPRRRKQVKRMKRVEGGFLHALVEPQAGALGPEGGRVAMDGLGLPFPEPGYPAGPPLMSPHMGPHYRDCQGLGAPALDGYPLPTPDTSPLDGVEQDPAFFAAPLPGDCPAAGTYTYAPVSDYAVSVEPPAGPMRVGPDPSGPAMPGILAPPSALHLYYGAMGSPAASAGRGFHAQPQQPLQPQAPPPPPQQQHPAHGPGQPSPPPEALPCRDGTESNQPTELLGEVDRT

Regarding GCAGAACAATGGCGTTAGCTCGCCATTGTTCTG (structured_DNA) [SCS6], the binding result was “binds”.
